Source: IntAct's records for PubMed 23348841

B1: Nonsense-mediated mRNA decay factor SMG7 (Homo sapiens), Q92540 (parent)
chain: MSLQSAQYLRQAEVLKADMTDSKLGPAEVWTSRQALQDLYQKMLVTDLEYALDKKVEQDLWNHAFKNQITTLQGQAKNRANPNRSEVQANLSLFLEAASGFYTQLLQELCTVFNVDLPCRVKSSQLGIISNKQTHTSAIVKPQSSSCSYICQHCLVHLGDIARYRNQTSQAESYYRHAAQLVPSNGQPYNQLAILASSKGDHLTTIFYYCRSIAVKFPFPAASTNLQKALSKALESRDEVKTKWGVSDFIKAFIKFHGHVYLSKSLEKLSPLREKLEEQFKRLLFQKAFNSQQLVHVTVINLFQLHHLRDFSNETEQHTYSQDEQLCWTQLLALFMSFLGILCKCPLQNESQEESYNAYPLPAVKVSMDWLRLRPRVFQEAVVDERQYIWPWLISLLNSFHPHEEDLSSISATPLPEEFELQGFLALRPSFRNLDFSKGHQGITGDKEGQQRRIRQQRLISIGKWIADNQPRLIQCENEVGKLLFITEIPELILEDPSEAKENLILQETSVIESLAADGSPGLKSVLSTSRNLSNNCDTGEKPVVTFKENIKTREVNRDQGRSFPPKEVRRDYSKGITVTKNDGKKDNNKRKTETKKCTLEKLQETGKQNVAVQVKSQTELRKTPVSEARKTPVTQTPTQASNSQFIPIHHPGAFPPLPSRPGFPPPTYVIPPPVAFSMGSGYTFPAGVSVPGTFLQPTAHSPAGNQVQAGKQSHIPYSQQRPSGPGPMNQGPQQSQPPSQQPLTSLPAQPTAQSTSQLQVQALTQQQQSPTKAVPALGKSPPHHSGFQQYQQADASKQLWNPPQVQGPLGKIMPVKQPYYLQTQDPIKLFEPSLQPPVMQQQPLEKKMKPFPMEPYNHNPSEVKVPEFYWDSSYSMADNRSVMAQQANIDRRGKRSPGVFRPEQDPVPRMPFEKSLLEKPSELMSHSSSFLSLTGFSLNQERYPNNSMFNEVYGKNLTSSSKAELSPSMAPQETSLYSLFEGTPWSPSLPASSDHSTPASQSPHSSNPSSLPSSPPTHNHNSVPFSNFGPIGTPDNRDRRTADRWKTDKPAMGGFGIDYLSATSSSESSWHQASTPSGTWTGHGPSMEDSSAVLMESLKSIWSSSMMHPGPSALEQLLMQQKQKQQRGQGTMNPPH
partner: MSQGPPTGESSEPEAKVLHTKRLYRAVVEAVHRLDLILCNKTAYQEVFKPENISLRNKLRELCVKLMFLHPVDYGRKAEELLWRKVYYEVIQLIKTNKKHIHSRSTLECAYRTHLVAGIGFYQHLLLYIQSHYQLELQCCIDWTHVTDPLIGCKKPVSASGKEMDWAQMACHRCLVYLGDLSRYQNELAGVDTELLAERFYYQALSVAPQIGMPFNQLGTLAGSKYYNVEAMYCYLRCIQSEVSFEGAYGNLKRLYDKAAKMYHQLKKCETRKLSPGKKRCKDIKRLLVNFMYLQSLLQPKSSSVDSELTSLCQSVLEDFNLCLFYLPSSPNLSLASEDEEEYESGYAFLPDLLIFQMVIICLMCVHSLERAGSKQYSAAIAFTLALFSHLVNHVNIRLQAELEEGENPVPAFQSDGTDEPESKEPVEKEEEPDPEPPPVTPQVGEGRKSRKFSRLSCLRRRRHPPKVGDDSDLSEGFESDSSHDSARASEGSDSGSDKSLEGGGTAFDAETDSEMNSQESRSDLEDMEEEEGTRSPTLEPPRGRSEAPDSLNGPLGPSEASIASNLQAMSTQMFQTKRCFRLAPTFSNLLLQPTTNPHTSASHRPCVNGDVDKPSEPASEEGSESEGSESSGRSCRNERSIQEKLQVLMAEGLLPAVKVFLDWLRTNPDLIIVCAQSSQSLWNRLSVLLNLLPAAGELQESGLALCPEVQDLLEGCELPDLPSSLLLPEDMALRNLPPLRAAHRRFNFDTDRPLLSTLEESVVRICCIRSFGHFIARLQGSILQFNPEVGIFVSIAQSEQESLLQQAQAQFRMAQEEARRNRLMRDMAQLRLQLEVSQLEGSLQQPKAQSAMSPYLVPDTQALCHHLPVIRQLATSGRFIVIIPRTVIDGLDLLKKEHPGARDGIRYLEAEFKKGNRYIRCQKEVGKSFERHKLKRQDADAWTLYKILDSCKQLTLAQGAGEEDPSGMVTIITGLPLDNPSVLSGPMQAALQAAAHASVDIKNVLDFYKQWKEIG
B2: Nonsense-mediated mRNA decay factor SMG5 (Homo sapiens), Q9UPR3 (parent)
chain: B1 partner
partner: B1 chain

Variants of: B1
Settings: with smg5_human SMG5, Q9UPR3

| Variant | effect of a mutation on the interaction |
| --- | --- |
| G100E | disrupting interaction strength |
| T103E | disrupting interaction strength |

Variants of: B2
Settings: with smg7_human SMG7, Q92540

| Variant | effect of a mutation on the interaction |
| --- | --- |
| G120E | disrupting interaction strength |
